Substrate in the series: O=[N+]([O-])c1ccccc1O[C@@H]1O[C@H](CO)[C@H](O)[C@H](O)[C@H]1O
Nature of the series: purified protein. Type of series: biochemical, Kluyveromyces lactis. To be noted: free enzyme, 37 °C, assay buffer 50 mM potassium phosphate, 1 mmol/L MgCl2, pH 6.5 (general activity assay), substrate range printed as 6.3-31.5 μmol/L, which conflicts with the mmol/L unit of Km.

B1: lactase (DSM Maxilact 5000) (Kluyveromyces lactis NRRL Y-1140) (protein)
chain: MSCLIPENLRNPKKVHENRLPTRAYYYDQDIFESLNGPWAFALFDAPLDAPDAKNLDWETAKKWSTISVPSHWELQEDWKYGKPIYTNVQYPIPIDIPNPPTVNPTGVYARTFELDSKSIESFEHRLRFEGVDNCYELYVNGQYVGFNKGSRNGAEFDIQKYVSEGENLVVVKVFKWSDSTYIEDQDQWWLSGIYRDVSLLKLPKKAHIEDVRVTTTFVDSQYQDAELSVKVDVQGSSYDHINFTLYEPEDGSKVYDASSLLNEENGNTTFSTKEFISFSTKKNEETAFKINVKAPEHWTAENPTLYKYQLDLIGSDGSVIQSIKHHVGFRQVELKDGNITVNGKDILFRGVNRHDHHPRFGRAVPLDFVVRDLILMKKFNINAVRNSHYPNHPKVYDLFDKLGFWVIDEADLETHGVQEPFNRHTNLEAEYPDTKNKLYDVNAHYLSDNPEYEVAYLDRASQLVLRDVNHPSIIIWSLGNEACYGRNHKAMYKLIKQLDPTRLVHYEGDLNALSADIFSFMYPTFEIMERWRKNHTDENGKFEKPLILCEYGHAMGNGPGSLKEYQELFYKEKFYQGGFIWEWANHGIEFEDVSTADGKLHKAYAYGGDFKEEVHDGVFIMDGLCNSEHNPTPGLVEYKKVIEPVHIKIAHGSVTITNKHDFITTDHLLFIDKDTGKTIDVPSLKPEESVTIPSDTTYVVAVLKDDAGVLKAGHEIAWGQAELPLKVPDFVTETAEKAAKINDGKRYVSVESSGLHFILDKLLGKIESLKVKGKEISSKFEGSSITFWRPPTNNDEPRDFKNWKKYNIDLMKQNIHGVSVEKGSNGSLAVVTVNSRISPVVFYYGFETVQKYTIFANKINLNTSMKLTGEYQPPDFPRVGYEFWLGDSYESFEWLGRGPGESYPDKKESQRFGLYDSKDVEEFVYDYPQENGNHTDTHFLNIKFEGAGKLSIFQKEKPFNFKISDEYGVDEAAHACDVKRYGRHYLRLDHAIHGVGSEACGPAVLDQYRLKAQDFNFEFDLAFE
notes: commercial enzyme preparation, free (not immobilised)
The term Km denotes the concentration of substrate that gives half-maximal velocity. Broadly, the kcat is the number of substrate molecules converted per active site and unit of time at saturation. B1: the Km stood at 25.4 mM and the kcat was found to be 1182.9 s⁻¹.

Values taken from paper PMC3709774, “Preparation of Novel Poly(hydroxyethyl methacrylate-coglycidyl methacrylate)-Grafted Core-Shell Magnetic Chitosan Microspheres and Immobilization of Lactase” (International Journal of Molecular Sciences, 2013).
